This note sets out measurements from patent US20150291695A1 (CANCER RESEARCH TECHNOLOGY, published 2015).

The target of experiment [1] is T1, αvβ6 integrin, immobilized (UniProt P06756 31-992; P18564 22-709).
T1 construct: also called immobilized αvβ6; rsαvβ6
The experiment in a line: ELISA on immobilized αvβ6, rabbit anti-MFE detection.

In experiment [2] the target is T2, carcinoembryonic antigen on LS-174T cells (human, UniProt P06731 35-702).
T2 construct: whole, on cells; also called CEA on LS174T cells; CEA-expressing LS-174T cells
T2 sequence: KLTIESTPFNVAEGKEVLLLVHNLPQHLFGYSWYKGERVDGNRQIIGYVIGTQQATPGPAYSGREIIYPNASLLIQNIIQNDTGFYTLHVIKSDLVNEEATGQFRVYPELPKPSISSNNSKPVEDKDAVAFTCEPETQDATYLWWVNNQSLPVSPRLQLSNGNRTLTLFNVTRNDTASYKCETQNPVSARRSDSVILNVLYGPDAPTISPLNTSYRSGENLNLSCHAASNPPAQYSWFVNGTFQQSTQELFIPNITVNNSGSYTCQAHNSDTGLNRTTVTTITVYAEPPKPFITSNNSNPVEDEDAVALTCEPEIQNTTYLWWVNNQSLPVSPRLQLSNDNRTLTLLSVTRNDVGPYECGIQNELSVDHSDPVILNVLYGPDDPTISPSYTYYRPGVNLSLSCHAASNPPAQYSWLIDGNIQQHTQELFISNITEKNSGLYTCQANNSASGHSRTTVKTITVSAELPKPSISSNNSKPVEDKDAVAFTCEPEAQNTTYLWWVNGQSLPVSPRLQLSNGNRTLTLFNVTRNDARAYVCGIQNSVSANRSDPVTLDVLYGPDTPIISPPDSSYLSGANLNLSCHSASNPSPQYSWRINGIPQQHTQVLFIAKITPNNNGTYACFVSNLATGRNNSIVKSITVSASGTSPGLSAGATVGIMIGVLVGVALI
The experiment in a line: flow cytometry on LS174T cells.

The target of experiment [3] is T3, αvβ3 integrin, immobilized (UniProt P06756 31-1048; P05106 27-788).
T3 construct: also called immobilized αvβ3
The experiment in a line: ELISA on immobilized αvβ3, rabbit anti-MFE detection.

The target of experiment [4] is T4, α5β1 integrin on A375Ppuro cells (UniProt P08648 42-1049; P05556 21-798).
T4 construct: whole, on cells
Put plainly: flow cytometry on A375Ppuro cells, which express α5β1.

Experiment [5] deals with T5, αvβ3 integrin on A375Ppuro cells (UniProt P06756 31-1048; P05106 27-788).
T5 construct: whole, on cells
Put plainly: flow cytometry on A375Ppuro cells, which express αvβ3.

For experiment [6], the target named is T6, αvβ5 integrin on A375Ppuro cells (UniProt P06756 31-1048; P18084 24-799).
T6 construct: whole, on cells
The experiment in a line: flow cytometry on A375Ppuro cells, which express αvβ5.

Experiment [7] addresses T7, αvβ8 integrin on A375Ppuro cells (UniProt P06756 31-1048; P26012 43-769).
T7 construct: whole, on cells
Put plainly: flow cytometry on A375Ppuro cells, which express αvβ8.

The target in experiment [8] is T8, carcinoembryonic antigen, immobilized (UniProt P06731 35-685).
T8 construct: also called CEA; immobilized CEA
T8 sequence: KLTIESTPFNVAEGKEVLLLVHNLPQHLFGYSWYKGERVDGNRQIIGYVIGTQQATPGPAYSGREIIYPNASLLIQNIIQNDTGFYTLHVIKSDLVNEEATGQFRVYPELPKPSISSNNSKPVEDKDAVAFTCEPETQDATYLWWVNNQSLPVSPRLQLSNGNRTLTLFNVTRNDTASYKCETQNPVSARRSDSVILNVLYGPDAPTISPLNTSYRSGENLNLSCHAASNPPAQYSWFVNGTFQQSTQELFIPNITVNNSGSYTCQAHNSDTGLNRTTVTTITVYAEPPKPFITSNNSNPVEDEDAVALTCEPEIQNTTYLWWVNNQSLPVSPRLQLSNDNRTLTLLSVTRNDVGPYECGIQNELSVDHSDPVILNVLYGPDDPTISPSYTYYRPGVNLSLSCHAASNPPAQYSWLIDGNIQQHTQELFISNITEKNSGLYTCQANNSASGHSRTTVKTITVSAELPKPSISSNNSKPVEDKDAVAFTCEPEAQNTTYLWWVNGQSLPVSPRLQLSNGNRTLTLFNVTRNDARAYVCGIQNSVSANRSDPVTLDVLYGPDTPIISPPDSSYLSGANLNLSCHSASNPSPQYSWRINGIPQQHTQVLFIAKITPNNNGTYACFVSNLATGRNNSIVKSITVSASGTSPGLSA
The experiment in a line: ELISA on immobilized CEA, rabbit anti-MFE detection, three concentrations.

T6 sequence (P06756 31-1048, chain 1 of 2): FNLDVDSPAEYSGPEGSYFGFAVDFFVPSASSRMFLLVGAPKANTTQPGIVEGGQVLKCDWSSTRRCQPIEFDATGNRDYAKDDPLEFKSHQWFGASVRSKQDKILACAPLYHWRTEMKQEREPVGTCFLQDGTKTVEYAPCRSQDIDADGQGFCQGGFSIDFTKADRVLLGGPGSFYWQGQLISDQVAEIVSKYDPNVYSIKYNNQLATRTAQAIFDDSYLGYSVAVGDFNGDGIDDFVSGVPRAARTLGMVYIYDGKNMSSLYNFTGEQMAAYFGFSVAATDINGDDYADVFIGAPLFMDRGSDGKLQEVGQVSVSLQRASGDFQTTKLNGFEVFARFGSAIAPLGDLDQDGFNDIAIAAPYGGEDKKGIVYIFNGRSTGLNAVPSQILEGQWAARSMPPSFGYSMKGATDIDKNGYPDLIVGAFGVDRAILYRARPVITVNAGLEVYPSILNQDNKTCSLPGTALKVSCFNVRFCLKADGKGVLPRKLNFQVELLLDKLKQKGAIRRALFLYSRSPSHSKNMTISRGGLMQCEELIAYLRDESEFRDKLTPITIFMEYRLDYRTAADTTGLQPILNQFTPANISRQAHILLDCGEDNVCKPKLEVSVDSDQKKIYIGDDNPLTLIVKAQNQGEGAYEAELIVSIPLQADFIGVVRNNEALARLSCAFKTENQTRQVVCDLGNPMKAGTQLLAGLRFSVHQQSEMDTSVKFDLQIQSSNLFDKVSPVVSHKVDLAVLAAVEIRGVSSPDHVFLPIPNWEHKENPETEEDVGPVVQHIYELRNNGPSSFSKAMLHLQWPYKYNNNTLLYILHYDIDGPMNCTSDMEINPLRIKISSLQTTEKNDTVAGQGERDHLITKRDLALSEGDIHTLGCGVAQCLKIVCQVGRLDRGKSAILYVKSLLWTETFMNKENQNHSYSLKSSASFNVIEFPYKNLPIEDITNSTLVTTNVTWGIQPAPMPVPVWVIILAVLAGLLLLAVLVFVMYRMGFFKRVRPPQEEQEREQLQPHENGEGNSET
T6 sequence (P18084 24-799, chain 2 of 2): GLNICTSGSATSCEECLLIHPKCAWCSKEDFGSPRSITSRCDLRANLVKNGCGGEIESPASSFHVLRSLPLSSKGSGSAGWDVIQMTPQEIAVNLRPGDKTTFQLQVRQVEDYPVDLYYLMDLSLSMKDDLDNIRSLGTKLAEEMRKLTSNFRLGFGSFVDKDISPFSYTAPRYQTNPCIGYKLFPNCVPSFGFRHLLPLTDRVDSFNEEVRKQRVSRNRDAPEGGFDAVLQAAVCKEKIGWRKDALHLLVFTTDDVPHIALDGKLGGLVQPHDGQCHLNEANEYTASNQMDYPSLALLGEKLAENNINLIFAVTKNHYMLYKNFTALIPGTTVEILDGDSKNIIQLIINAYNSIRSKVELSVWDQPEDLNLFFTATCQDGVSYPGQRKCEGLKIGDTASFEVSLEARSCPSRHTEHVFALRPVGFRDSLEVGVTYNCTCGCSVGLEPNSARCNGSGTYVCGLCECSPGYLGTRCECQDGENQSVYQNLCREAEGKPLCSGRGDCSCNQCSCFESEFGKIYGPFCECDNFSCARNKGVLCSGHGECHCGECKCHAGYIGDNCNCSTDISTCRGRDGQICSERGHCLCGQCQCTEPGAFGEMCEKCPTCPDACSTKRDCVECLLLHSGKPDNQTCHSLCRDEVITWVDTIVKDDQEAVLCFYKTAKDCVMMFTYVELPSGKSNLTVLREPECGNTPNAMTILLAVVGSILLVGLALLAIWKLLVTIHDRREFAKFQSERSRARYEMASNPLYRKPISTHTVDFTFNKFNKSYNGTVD
T3 sequence (P06756 31-1048, chain 1 of 2): as the sequence (P06756 31-1048, chain 1 of 2) above
T3 sequence (P05106 27-788, chain 2 of 2): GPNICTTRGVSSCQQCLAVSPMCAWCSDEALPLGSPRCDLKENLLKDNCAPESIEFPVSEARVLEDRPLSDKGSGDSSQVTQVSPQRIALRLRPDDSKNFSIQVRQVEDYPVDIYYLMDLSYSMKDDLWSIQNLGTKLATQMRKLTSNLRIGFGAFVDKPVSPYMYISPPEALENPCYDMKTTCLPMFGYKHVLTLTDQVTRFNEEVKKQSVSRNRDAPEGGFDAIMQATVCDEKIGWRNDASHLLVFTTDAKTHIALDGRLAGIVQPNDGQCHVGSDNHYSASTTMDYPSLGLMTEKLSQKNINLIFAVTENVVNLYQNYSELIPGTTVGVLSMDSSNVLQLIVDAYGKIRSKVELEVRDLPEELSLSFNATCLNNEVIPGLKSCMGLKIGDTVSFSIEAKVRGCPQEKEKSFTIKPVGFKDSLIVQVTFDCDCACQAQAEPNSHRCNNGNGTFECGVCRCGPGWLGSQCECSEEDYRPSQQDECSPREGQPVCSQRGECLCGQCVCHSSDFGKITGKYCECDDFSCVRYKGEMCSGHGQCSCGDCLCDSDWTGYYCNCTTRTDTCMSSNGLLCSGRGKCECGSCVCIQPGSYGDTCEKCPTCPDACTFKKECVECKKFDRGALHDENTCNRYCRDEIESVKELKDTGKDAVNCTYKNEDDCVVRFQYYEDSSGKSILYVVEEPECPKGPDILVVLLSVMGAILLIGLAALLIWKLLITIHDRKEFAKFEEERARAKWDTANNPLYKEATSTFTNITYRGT
T7 sequence (P06756 31-1048, chain 1 of 2): as the sequence (P06756 31-1048, chain 1 of 2) above
T7 sequence (P26012 43-769, chain 2 of 2): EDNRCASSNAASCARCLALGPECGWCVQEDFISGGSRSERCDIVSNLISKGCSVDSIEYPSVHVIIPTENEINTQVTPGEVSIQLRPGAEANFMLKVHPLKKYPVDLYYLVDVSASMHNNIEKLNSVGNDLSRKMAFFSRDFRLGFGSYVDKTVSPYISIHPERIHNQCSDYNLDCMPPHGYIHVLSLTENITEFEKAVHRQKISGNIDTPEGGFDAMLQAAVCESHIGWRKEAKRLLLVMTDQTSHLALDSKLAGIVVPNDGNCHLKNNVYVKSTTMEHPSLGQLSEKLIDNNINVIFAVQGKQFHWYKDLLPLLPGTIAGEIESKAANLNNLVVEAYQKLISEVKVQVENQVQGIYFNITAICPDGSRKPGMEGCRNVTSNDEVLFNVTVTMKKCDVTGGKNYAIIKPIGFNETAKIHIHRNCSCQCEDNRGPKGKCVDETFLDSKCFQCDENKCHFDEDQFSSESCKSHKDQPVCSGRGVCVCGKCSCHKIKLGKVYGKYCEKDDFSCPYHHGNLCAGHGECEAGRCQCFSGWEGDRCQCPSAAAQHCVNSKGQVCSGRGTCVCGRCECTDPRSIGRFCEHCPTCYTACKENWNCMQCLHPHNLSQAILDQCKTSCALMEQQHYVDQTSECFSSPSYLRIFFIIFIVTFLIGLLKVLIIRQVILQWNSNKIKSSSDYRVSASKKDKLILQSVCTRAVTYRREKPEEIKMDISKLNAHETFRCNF
T5 sequence (P06756 31-1048, chain 1 of 2): as the sequence (P06756 31-1048, chain 1 of 2) above
T5 sequence (P05106 27-788, chain 2 of 2): as the sequence (P05106 27-788, chain 2 of 2) above

B1: MFE-23 scFv (scFv)
scFv: QVKLQQSGAELVRSGTSVKLSCTASGFNIKDSYMHWLRQGPEQGLEWIGWIDPENGDTEYAPKFQGKATFTTDTSSNTAYLQLSSLTSEDTAVYYCNEGTPTGPYYFDYWGQGTTVTVSSGGGGSGGGGSGGGGSENVLTQSPAIMSASPGEKVTITCSASSSVSYMHWFQQKPGTSPKLWIYSTSNLASGVPARFSGSGSGTSYSLTISRMEAEDAATYYCQQRSSYPLTFGAGTKLELKRAAAHHHHHH
notes: also called parent MFE
With B1, in experiment [1], the binding result is listed as “no binding (tested: 10 µg/ml)”.

B2: NFEVP1 (scFv)
scFv: QVKLQQSGAELVRSGTSVKLSCTASGFNIKDSYMHWLRQGPEQGLEWIGWIDPENGDTEYAPKFQGKATFTTDTSSNTAYLQLSSLTSEDTAVYYCNEGTPTAVPNLRGDLQVLAQKVAGPYPFDYWGQGTTVTVSSGGGGSGGGGSGGGGSENVLTQSPAIMSASPGEKVTITCSASSSVSYMHWFQQKPGTSPKLWIYSTSNLASGVPARFSGSGSGTSYSLTISRMEAEDAATYYCQQRSSYPLTFGAGTKLELKRAAAHHHHHH
For the molecule B2, the binding result in experiment [2] is reported as “no binding (tested: 50 µg/ml)”; in experiment [3], “no binding (tested: 20 µg/ml)”; in experiment [4] it was “no binding”; in experiment [5], “no binding”; in experiment [6] it was “no binding”; in experiment [7], “no binding”. In experiment [8], the binding result is “no binding”.
